# Measurements: publication PMC11969024, “Development of chemokine network inhibitors using combinatorial saturation mutagenesis” (Communications Biology, 2025)
# B1: peptide HD2 (from tick evasin EVA4) / CCL22 (biotinylated, synthetic) (parent)
# chain 1: EEDDYTAYAPLTCYFT
# chain 2: GPYGANMEDSVCCRDYVRYRLPLRVVKHFYWTSDSCPRPGVVLLTFRDKEICADPRVPWVKMILNKLSQ
# B2: peptide HD2 (from tick evasin EVA4) / CXCL13 (biotinylated, synthetic) (parent)
# chain 1: EEDDYTAYAPLTCYFT
# chain 2: VLEVYYTSLRCRCVQESSVFIPRRFIDRIQILPRGNGCPRKEIIVWKKNKSIVCVDPQAEWIQRMMEVLRKRSSSTLPVPVFKRKIP
# Variants of: B1
# Conditions: with CCL22 (biotinylated, synthetic); scale: log2
row,Variant,enrichment
1,chain 1 EEDDYTCYAPLTCYFT,-9.84
2,chain 1 EEDDYTAYAPLTQYFT,-9.37
3,chain 1 EEDDYTAYAPLTKYFT,-9.12
4,chain 1 EEDDYTAYAPLTRYFT,-10.5
5,chain 1 ECDDYTAYAPLTCYFT,-10
6,chain 1 ERDDYTAYAPLTCYFT,-7.13
7,chain 1 EEDDYTAYDPLTCYFT,-8.23
8,chain 1 EEDDYTAYIPLTCYFT,-9.99
9,chain 1 EEDDYTAYCPLTCYFT,-10.1
10,chain 1 EEDDYTAYPPLTCYFT,-7.8
11,chain 1 EEDDKTAYAPLTCYFT,-5.6
12,chain 1 EEDDGTAYAPLTCYFT,-7.11
13,chain 1 EEDDPTAYAPLTCYFT,-6.73
14,chain 1 EEDDQTAYAPLTCYFT,-5.36
15,chain 1 EEDDRTAYAPLTCYFT,-7.05
16,chain 1 CEDDYTAYAPLTCYFT,-9.75
17,chain 1 EERDYTAYAPLTCYFT,-7.45
18,chain 1 EEQDYTAYAPLTCYFT,-4.99
19,chain 1 EECDYTAYAPLTCYFT,-9.89
20,chain 1 EEDDYTAYAVLTCYFT,-10.4
21,chain 1 EEDDYTAYAKLTCYFT,-6.96
22,chain 1 EEDDYTAYAQLTCYFT,-6.39
23,chain 1 EEDDYTAYAMLTCYFT,-8.5
24,chain 1 EEDDYTAYASLTCYFT,-9.19

row,Variant,enrichment
1,chain 1 EEDDYTAYAILTCYFT,-8.44
2,chain 1 EEDDYTAYAALTCYFT,-8.71
3,chain 1 EEDDYTAYAHLTCYFT,-7.95
4,chain 1 EEDDYTAYANLTCYFT,-8.02
5,chain 1 EEDDYTAYACLTCYFT,-9.72
6,chain 1 EEDDYTAYATLTCYFT,-7.86
7,chain 1 EEDDYTAYARLTCYFT,-9.08
8,chain 1 EEDDYTAQAPLTCYFT,-6.36
9,chain 1 EEDDYTAHAPLTCYFT,-7.57
10,chain 1 EEDDYTAMAPLTCYFT,-8.49
11,chain 1 EEDDYTAKAPLTCYFT,-6.07
12,chain 1 EEDDYTANAPLTCYFT,-8.13
13,chain 1 EEDDYTAGAPLTCYFT,-8.71
14,chain 1 EEDDYTAPAPLTCYFT,-7.86
15,chain 1 EEDDYTAIAPLTCYFT,-9.38
16,chain 1 EEDDYTATAPLTCYFT,-8.48
17,chain 1 EEDDYTAEAPLTCYFT,-6.18
18,chain 1 EEDDYTARAPLTCYFT,-8.18
19,chain 1 EEDKYTAYAPLTCYFT,-6.88
20,chain 1 EEDHYTAYAPLTCYFT,-7.77
21,chain 1 EEDCYTAYAPLTCYFT,-9.24
22,chain 1 EEDGYTAYAPLTCYFT,-6.22
23,chain 1 EEDTYTAYAPLTCYFT,-7.88
24,chain 1 EEDRYTAYAPLTCYFT,-7.09

# Variants of: B2
# Conditions: with CXCL13 (biotinylated, synthetic); scale: log2
row,Variant,enrichment
1,chain 1 EEHDYTAYAPLTCYFT,-5.74
2,chain 1 EECDYTAYAPLTCYFT,-8.67
3,chain 1 EERDYTAYAPLTCYFT,-6.23
4,chain 1 EEKDYTAYAPLTCYFT,-4.13
5,chain 1 EEDDYTAKAPLTCYFT,-4.84
6,chain 1 EEDDYTACAPLTCYFT,-8.46
7,chain 1 EEDDYTARAPLTCYFT,-6.96
8,chain 1 EEDDYTAPAPLTCYFT,-6.64
9,chain 1 EEDDYTCYAPLTCYFT,-8.62
10,chain 1 EEDDCTAYAPLTCYFT,-7.94
11,chain 1 EEDDTTAYAPLTCYFT,-6.44
12,chain 1 EEDDKTAYAPLTCYFT,-4.37
13,chain 1 EEDDRTAYAPLTCYFT,-5.82
14,chain 1 EEDDYTAYAPLTCYKT,-5.78
15,chain 1 EEDDYTAYAPLTCYDT,-7.37
16,chain 1 EEDDYTAYAPLTCYNT,-5.51
17,chain 1 EEDDYTAYAPLTCYHT,-6.08
18,chain 1 EEDDYTAYAPLTCNFT,-5.67
19,chain 1 EEDDYTAYAPLTCDFT,-6.3
20,chain 1 EEDDYTAYAPLTCRFT,-8.87
21,chain 1 EEDDYTAYAPLTCLFT,-9.26
22,chain 1 EEDDYTAYAPLTCPFT,-7.63
23,chain 1 EEDDYTAYAPLTCIFT,-6.05
24,chain 1 EEDDYTAYAPLTCEFT,-7.54

row,Variant,enrichment
1,chain 1 EEDDYTAYAPLTCGFT,-9.28
2,chain 1 EEDDYTAYAPLTCQFT,-6.82
3,chain 1 EEDDYTAYAPLTCAFT,-8.81
4,chain 1 EEDDYTAYAPLTCSFT,-8.45
5,chain 1 EEDDYTAYAPLTCKFT,-6.94
6,chain 1 EEDDYTAYAPKTCYFT,-5.76
7,chain 1 EEDDYTAYAPGTCYFT,-9.02
8,chain 1 EEDDYTAYAPDTCYFT,-7.86
9,chain 1 EEDDYTAYAPPTCYFT,-6.87
10,chain 1 EEDDYTAYAPQTCYFT,-5.03
11,chain 1 EEDDYTAYAPETCYFT,-6.94
12,chain 1 EEDDYTAYAPLTMYFT,-8.29
13,chain 1 EEDDYTAYAPLTDYFT,-7.93
14,chain 1 EEDDYTAYAPLTRYFT,-9.32
15,chain 1 EEDDYTAYAPLTKYFT,-7.9
16,chain 1 EEDDYTAYAPLTHYFT,-7.42
17,chain 1 EEDDYTAYAPLTFYFT,-7.4
18,chain 1 EEDDYTAYAPLTGYFT,-9.21
19,chain 1 EEDDYTAYAPLTWYFT,-8.42
20,chain 1 EEDDYTAYAPLKCYFT,-6.36
21,chain 1 EEDDYTAYAPLECYFT,-6.73
22,chain 1 EEDDYTAYAPLGCYFT,-9.07
23,chain 1 EEDDYTAYKPLTCYFT,-5.4
